The experiment has as its target gp130 on HepG2 B6 cells (UniProt P40189). Briefly: cell-based or functional assay.

Sequence of gp130 on HepG2 B6 cells (P40189 23-918 limits assumed): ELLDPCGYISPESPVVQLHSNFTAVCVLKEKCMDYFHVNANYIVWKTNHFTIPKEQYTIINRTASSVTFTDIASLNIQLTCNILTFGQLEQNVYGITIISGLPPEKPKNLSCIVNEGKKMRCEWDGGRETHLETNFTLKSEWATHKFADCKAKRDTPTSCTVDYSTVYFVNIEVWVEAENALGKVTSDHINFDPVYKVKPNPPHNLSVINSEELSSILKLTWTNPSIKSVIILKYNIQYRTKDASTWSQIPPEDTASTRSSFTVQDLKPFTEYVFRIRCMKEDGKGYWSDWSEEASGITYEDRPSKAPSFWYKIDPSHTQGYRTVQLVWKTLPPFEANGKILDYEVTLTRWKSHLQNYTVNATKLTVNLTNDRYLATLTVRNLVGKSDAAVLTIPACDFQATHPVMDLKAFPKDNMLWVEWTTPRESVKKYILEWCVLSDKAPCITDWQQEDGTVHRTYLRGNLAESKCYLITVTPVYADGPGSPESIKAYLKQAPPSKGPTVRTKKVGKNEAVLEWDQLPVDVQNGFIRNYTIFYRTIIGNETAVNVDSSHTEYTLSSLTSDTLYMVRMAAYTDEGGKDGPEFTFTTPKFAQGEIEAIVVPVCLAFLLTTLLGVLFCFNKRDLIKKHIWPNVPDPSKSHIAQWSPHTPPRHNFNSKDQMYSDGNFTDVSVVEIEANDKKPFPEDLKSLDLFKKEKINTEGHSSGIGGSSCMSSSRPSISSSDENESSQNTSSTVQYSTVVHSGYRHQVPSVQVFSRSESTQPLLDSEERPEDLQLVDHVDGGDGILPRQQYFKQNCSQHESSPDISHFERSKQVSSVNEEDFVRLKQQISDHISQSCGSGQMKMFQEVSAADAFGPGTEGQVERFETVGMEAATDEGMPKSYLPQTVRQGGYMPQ

With “OSM-GST L13A (from UniProt P08515 1-218) (ligand)”, the EC50, sPAP, HepG2 B6, Expt 1 came to 0.0657 µg/mL; the EC50, sPAP, HepG2 B6, Expt 2 turned out to be 0.0549 µg/mL; the EC50 as % of wild type, sPAP, HepG2 B6, Expt 1 amounted to 269%; the EC50 as % of wild type, sPAP, HepG2 B6, Expt 2 came out at 171%. The mean EC50 as % of wild type, sPAP, HepG2 B6 was found to be 220%.

Values taken from patent US20060093602A1.
